Assay [1] deals with Hyper-IL-6 (designer cytokine consisting of covalently linked IL-6 and sIL-6R) (human) (UniProt P08887). The experiment in a line: SPR, ProteOn XPR36, mutein immobilised, Hyper-IL-6 80 to 2.5 nM in flow, 25 C.
Target sequence in this assay (P08887 20-323 limits assumed, chain 1 of 2): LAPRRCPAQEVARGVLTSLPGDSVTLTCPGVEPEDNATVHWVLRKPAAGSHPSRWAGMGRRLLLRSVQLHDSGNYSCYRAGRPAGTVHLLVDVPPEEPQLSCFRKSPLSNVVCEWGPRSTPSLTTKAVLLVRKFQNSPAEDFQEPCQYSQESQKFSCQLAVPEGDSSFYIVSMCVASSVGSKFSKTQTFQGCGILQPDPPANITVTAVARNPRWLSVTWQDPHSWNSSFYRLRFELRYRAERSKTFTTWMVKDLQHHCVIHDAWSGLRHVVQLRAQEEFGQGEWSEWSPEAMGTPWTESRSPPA
Target sequence in this assay (P05231 30-212 limits assumed, chain 2 of 2, further chain): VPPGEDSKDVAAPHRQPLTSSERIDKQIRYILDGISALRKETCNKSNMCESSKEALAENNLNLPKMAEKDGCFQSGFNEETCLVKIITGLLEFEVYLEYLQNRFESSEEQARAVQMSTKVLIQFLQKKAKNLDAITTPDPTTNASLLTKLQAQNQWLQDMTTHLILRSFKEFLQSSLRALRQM
Assay [2] has the same target. The experiment in a line: cell-based or functional assay.
Target sequence in this assay (P08887 20-323 limits assumed, chain 1 of 2): as the sequence (P08887 20-323 limits assumed, chain 1 of 2) above
Target sequence in this assay (P05231 30-212 limits assumed, chain 2 of 2, further chain): as the sequence (P05231 30-212 limits assumed, chain 2 of 2, further chain) above
For assay [3], the target named is human IL-6/sIL-6R complex (interleukin-6 plus soluble interleukin-6 receptor) (human) (UniProt P05231). As to the kind of experiment: cell-based or functional assay.
The target in assay [4] is human gp130 on the BAF3 cell surface (human) (UniProt P40189). As to the kind of experiment: cell-based or functional assay.
The target in assay [5] is Hyper-IL-6 (designer cytokine consisting of covalently linked IL-6 and sIL-6R) (human) (UniProt P08887). The experiment in a line: SPR. The settings on record: Fc fusion.
Target sequence in this assay (P08887 20-323, chain 1 of 2): as the sequence (P08887 20-323 limits assumed, chain 1 of 2) above
Target sequence in this assay (P05231 30-212, chain 2 of 2, further chain): as the sequence (P05231 30-212 limits assumed, chain 2 of 2, further chain) above

Chain of human gp130 on the BAF3 cell surface (human) (P40189 23-918): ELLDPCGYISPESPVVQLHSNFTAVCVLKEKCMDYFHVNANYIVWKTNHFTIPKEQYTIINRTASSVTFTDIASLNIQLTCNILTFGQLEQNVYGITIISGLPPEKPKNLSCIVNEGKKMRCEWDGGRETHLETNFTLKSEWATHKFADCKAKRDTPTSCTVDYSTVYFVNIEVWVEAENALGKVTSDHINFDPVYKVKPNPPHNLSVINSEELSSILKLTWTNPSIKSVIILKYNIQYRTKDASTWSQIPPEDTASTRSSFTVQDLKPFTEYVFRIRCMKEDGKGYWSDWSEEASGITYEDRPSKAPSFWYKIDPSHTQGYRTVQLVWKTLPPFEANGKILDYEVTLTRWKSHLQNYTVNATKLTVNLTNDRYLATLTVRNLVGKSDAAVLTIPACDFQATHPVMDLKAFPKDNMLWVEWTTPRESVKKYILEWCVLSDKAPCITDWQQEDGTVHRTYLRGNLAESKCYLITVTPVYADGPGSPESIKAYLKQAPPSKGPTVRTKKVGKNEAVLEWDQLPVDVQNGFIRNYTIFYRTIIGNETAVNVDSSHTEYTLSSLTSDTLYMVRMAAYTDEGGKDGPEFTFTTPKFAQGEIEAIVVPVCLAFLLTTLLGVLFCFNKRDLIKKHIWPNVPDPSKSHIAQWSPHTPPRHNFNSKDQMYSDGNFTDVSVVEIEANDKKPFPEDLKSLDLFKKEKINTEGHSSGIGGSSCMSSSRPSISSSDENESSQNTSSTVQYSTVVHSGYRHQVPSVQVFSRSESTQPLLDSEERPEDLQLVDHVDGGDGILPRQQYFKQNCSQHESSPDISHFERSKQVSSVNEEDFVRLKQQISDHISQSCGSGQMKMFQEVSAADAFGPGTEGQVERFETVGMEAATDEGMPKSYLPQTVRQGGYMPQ
Chain of human IL-6/sIL-6R complex (interleukin-6 plus soluble interleukin-6 receptor) (human) (P05231 30-212 limits assumed, chain 1 of 2): as the sequence (P05231 30-212 limits assumed, chain 2 of 2, further chain) above
Chain of human IL-6/sIL-6R complex (interleukin-6 plus soluble interleukin-6 receptor) (human) (P08887 20-358 limits assumed, chain 2 of 2, further chain): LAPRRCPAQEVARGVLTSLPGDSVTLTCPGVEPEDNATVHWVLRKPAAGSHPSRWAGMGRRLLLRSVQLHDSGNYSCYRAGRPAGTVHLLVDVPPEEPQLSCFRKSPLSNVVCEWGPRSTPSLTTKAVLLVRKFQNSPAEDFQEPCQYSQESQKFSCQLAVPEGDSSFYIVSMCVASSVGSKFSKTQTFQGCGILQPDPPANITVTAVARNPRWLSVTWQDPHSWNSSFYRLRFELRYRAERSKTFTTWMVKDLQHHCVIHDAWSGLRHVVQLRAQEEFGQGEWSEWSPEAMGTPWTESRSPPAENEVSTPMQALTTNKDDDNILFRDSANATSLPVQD

Turning to “sgp130Fc triple mutein Thr102Tyr/Gln113Phe/Asn114Leu (T102Y/Q113F/N114L) (from UniProt P40189 23-619) (Fc fusion)”, in assay [1], the fold increase of the affinity constant KD against wild type sgp130Fc amounted to 4 fold. In assay [2], the IC50 of inhibition of BAF3/gp130 proliferation, fold lower than wild type sgp130Fc (Cell Titer-Blue assay) was above 3 fold. In addition, the IC50 of inhibition of BAF3/gp130 proliferation, fold lower than wild type sgp130Fc (MTS assay) in assay [3] came out at 3 fold.

As to “murine IL-6/sIL-6R complex (from UniProt P08505 25-211; P22272 20-364) (ligand)”, in assay [4], the amount needed for the same proliferation signal in BAF3/gp130 cells, against human IL-6/sIL-6R stood at 3 fold.

In assay [5], “sgp130Fc triple mutein Thr102Tyr/Gln113Phe/Asn114Leu (T102Y/Q113F/N114L) (from UniProt P40189 23-619)” gave a Kd of 0.122 nM.

The values above are taken from US8501696.
